Measurements taken from US20020119148A1.

Experiments:
[1] = biological target: HRG binding sites on human mammary carcinoma cell lines MDA-MB-453, T47D and BT474; assay: self-competition, 100 nM unlabeled HRG against 125I-HRG on T47D cells
[2] = biological target: HRG binding sites on human mammary carcinoma cell lines MDA-MB-453, T47D and BT474; assay: self-competition, 100 nM unlabeled HRG against 125I-HRG on BT474 cells
[3] = biological target: HRG binding sites on human mammary carcinoma cell lines MDA-MB-453, T47D and BT474; assay: self-competition, 100 nM unlabeled HRG against 125I-HRG on MDA-MB-453 cells
[4] = biological target: HER-2 on human mammary carcinoma cell lines MDA-MB-453, T47D and BT474 (human) (UniProt P04626); assay: 125I-HRG binding to T47D cells, 100 nM Mab

| Substance | percent of 125I-HRG binding blocked [1] [%] | percent of 125I-HRG binding blocked [2] [%] | percent of 125I-HRG binding blocked [3] [%] | percent of 125I-HRG binding blocked [4] [%] |
| --- | --- | --- | --- | --- |
| HRGβ1(177-244), EGF-like domain of heregulin β1 (from UniProt Q02297 177-244) (ligand) | 98 | 96 | 99 | – |
| anti-HER-2 control Mab 4D5 (antibody) | – | – | – | 48 |
